Measurements taken from patent publication US20220281959A1 (published 2022).
Where two headings read alike, the source gives them in different places. Ends that are not written are not given here.

T1: BSA-PEP3 peptide (also: conjugated to BSA)
T1 peptide: PWNASWSNKSLDDIW


Assays:
[1] = biological target: T2, HIV-1 MN gp41 recombinant protein produced in E. coli (565-771Delta642-725) (HIV-1 MN); assay: ELISA
[2] = biological target: T3, HIV-1 MN gp41 (a.a. 542-666) produced in S2 cells (UniProt P05877 542-666); assay: ELISA
[3] = biological target: T4, HXB2 gp41 recombinant protein (a.a. 534-681) (UniProt P04578 534-681); assay: ELISA
[4] = biological target: T3, HIV-1 MN gp41 (a.a. 542-666) produced …; assay: ELISA; remark: listed apart in the source
[5] = biological target: T1, BSA-PEP3 peptide; assay: ELISA
[6] = biological target: T4, HXB2 gp41 recombinant protein (a.a. …); assay: ELISA; remark: listed apart in the source
[7] = biological target: T2, HIV-1 MN gp41 recombinant protein …; assay: ELISA; remark: listed apart in the source
[8] = biological target: T1, BSA-PEP3 peptide; assay: ELISA
[9] = biological target: T4, HXB2 gp41 recombinant protein (a.a. …); assay: sandwich ELISA; capture Ab
[10] = biological target: T3, HIV-1 MN gp41 (a.a. 542-666) produced …; assay: ELISA; curve not in saturation
[11] = biological target: T4, HXB2 gp41 recombinant protein (a.a. …); assay: ELISA; curve not in saturation

Binder	EC50 [1] [µg/mL]	EC50 [2] [µg/mL]	EC50 [3] [µg/mL]	EC50 [4] [µg/mL]	EC50 [5] [µg/mL]	EC50 [6] [µg/mL]	EC50 [7] [µg/mL]	EC50 [8] [µg/mL]	EC50 [9] [µg/mL]	EC50 [10] [µg/mL]	EC50 [11] [µg/mL]
anti-PEP3 mAb 8D5 (antibody, V domains shown) VH: QVQLQQPGAELIEPGTSVKLSCKASGYTFTTYWMHWVKQRPGQGLEWIGMIHPNSGDTFYNENFKNKATLTVDISSSTVYMELSSLTSEDSAVYSCVKAGTGALDYWGQGTTLTVSS VL: DVVMTQTPLSLPVSLGDQASISCRSSQSIVHSNRYTYLEWYLQRPGQSLKLLIYGVSNRFSGVPDRFSGSGSGTDFILKISRVEAEDMGVYYCFQGTHVPFTFGSGTKLEIK	0.02	0.09	0.0005	0.09	0.006	0.0005	0.02	0.006	0.018	–	–
anti-PEP3 gp41 mAb 4G1 (antibody, V domains shown) VL: DVVMTQTPLSLCVSLGDQASISCRTSQSIVHSNRYTYLEWYLQKPGQPLKLLIYGIANRFSGVPDRFSGSGSGTDFTLKISRVEAEDMGVYYCLQGTHVPFTFGSGTKLEIK V domain: QVQLQQPGAELVKPGASVKLSCKASGYIFRNYWMHWVKQRPGQGLEWIGMIHPNSDITHYNEKFKNRATLTVDKSSSTAYMQLNSLTSEDSAVYYCARGGLGVFDYWGQGTALRVSS	0.005	–	–	–	–	–	0.005	–	–	–	–
anti-PEP3 mAb 15B4 (antibody, V domains shown) VH: QVQLQQSGPELVRPGTSVKISCKAPGYSFTSHWMQWLRQRPGQGLEWIGEIFPGSGKTYYNEKFKDKATLTADTSSTTVYMQFSSLTSEDSAVYFCASDYDGGDYWGQGTTLTVSS VL: not shown	0.3	–	0.12	> 11	0.02	0.12	0.3	0.02	0.355	> 11	–
anti-PEP3 mAb 3A2 (antibody, V domains shown) VH: QVQLQQPGAELVKPGASVKLSCKASGYIFTNYWMHWVRQRPGQGPEWIGMIHPNRGDLHYSEKFNNKATLTVDKSSSTAYMQLNSLASEDSAVYFCARAGLGVFDYWGQGSTLTVSS VL: DVVMTQTPLSLPVSLGDQVSMSCRSSQSIEHSNRNTYLEWYLHKPGQAPQLLIYGVSNRFTGVPDRFSGSGSGTDFTLKISRVEAEDMGVYHCLQGTHVPFTFGSGTKLEIK	0.02	0.78	0.0044	0.78	0.007	0.0044	0.02	0.007	0.0098	–	–
anti-PEP3 mAb 9B12 (antibody, V domains shown) VH: QVQLQQSGPELVKPGASVKISCKASGYGFSDSWMNWVKQRPGKGLDWIGRIYPGDGDTDYNGKFKDKATLTADKSSTTAYMQLSSLTSEDSAVYFCAYLGHWGQGTLVTVSA VL: not shown	> 30	–	–	> 700	0.02	> 137	> 30	0.02	–	> 700	> 137
anti-PEP3 mAb 5E12 (antibody, V domains shown) VH: QIQLVQSGPELKKPGETVKISCKASGYTFRTYGMSWVKQAPGKGLKWMGWINTYSGVPRYVDDFKGRFALSLETSASTAYLQINNLKSEDTATYFCVREGYSYYGSSFHTMDYWGQGTSVTVSS VL: DIQMTQTPLTLSVTIGHPASISCKSSQSLLHTNGKIYLNWLLQRPGQSPKRLIYLVSKLDSGVPDRFSGSGSGTDFTLKISRVEAEDLGVYYCLQSTHFPQTFGGGTKLEIK	> 13	–	–	> 19	0.015	> 20	> 13	0.015	–	> 19	> 20
